Measurements reported in patent publication US20240317865A1, “ANTIBODIES AGAINST INTEGRIN ALPHA 11 BETA 1” (MOMENTA PHARMACEUTICALS, INC., priority 2020, published 2024).

T1: α11β1 I Domain (Homo sapiens, UniProt Q9UKX5)
T1 sequence (Q9UKX5 164-345 limits assumed): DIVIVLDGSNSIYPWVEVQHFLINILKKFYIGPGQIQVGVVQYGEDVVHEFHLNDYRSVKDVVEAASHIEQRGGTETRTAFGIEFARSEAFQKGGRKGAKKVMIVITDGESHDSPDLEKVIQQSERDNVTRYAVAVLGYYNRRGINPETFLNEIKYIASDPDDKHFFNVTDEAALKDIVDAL


Assays:
[1] = tested on: α1β1, α2β1 and/or α10β1; test: Counter-screen against other collagen receptors (off target); format: binding, human
Protocol: Wistar rats were immunized with recombinant human α11β1 protein. An enzyme-linked immunosorbent assay (ELISA) was used to test an immune response against target human and mouse proteins. Subsequently, cell fusion (by electro fusion) was performed with animals that produced a good immune response. All fused cells were plated in a 96-well plate and supernatants were screened by ELISA against soluble human and mouse α11β1. Positive clones were counter-screened against human α1β1, α2β1 and α10β1. […] Purified antibodies were then generated from the selected clones and heavy chain and light chain variable domain sequences were obtained from each purified antibody.
10 mice from 5 different strains were immunized with an appropriate mixture of human α11β1, mouse α11β1 and tolerance breaking protein. Plasma titers were evaluated by ELISA against a mixture of human and mouse α11β1. Popliteal, inguinal, and iliac lymph nodes were collected. ELISA-positive anti-human/mouse α11β1 hybridomas were expanded and subjected to a secondary screen against human and mouse α11β1, control HIS protein, and a counter-screen was performed against human […], α2β1 and α10β1. Supernatant IgG concentration was sufficient for functional screening. […]

[2] = molecular target: T1, α11β1 I Domain; test: ELISA binding to in-house generated α11β1 I domain; design: An in-house generated I domain of α11β1 was used; made in house; conditions: in words
Protocol: 0.25 μg/mL of target antigen (recombinant human or mouse α11β1) was plated in a 96-well plate over night at 4° C. Plates were washed (PBS with 0.1% Tween-20), blocked (PBS with 2% BSA and 0.05% Tween-20) for 1 hour at room temperature and incubated with a range of antibody concentrations for 1 hour at room temperature. Subsequently, plates were washed and incubated with biotinylated anti-rabbit/mouse/human IgG in a 1:1000 dilution buffer and incubated for 1 hour at room temperature. After washing the plates, Streptavidin HRP was added at 1:200 in dilution buffer and incubated for 1 hour at room temperature. Ultra TMB ELISA substrate solution was added and the plates incubated for 5 minutes on a plate shaker. The reaction was stopped by adding stop solution to each well and plates were read at 450 nm.
Data was also collected to determine whether antibodies of interest bind to the I domain of α11β1. An in-house generated I domain of α11β1 was used. […] Mouse antibodies 10-F23, 10-L15, 7-O8, 6-A12, 9-G05 and 9-E16 and rabbit antibodies 7-H12 and 2-D3 were also tested for binding against the in-house generated α11β1 I domain. FIGS. 3A and 3B show graphs illustrating binding data from exemplary mAbs.

[3] = tested on: CHO-K1 human α11-mediated rat tail type I collagen gel contraction; test: Collagen gel contraction assay; format: cell-based; conditions: compared to untreated condition
Protocol: 24-well plates were blocked with 2% BSA in PBS overnight at 37° C. The following day, the plates were washed 3 times with PBS before being used in the assay. Human CHO cell lines expressing α11 were harvested and resuspended at 1.25×10^6 in ExpiCHO Expression Medium (Gibco™ Cat #A2910002). The collagen gel solution was prepared by diluting 3 mg/mL stock collagen type I (Gibco™ Collagen I Rat Protein, Tail Cat #A1048301) to 1 mg/mL in the media containing the CHO cells. Sodium hydroxide was added to the solution to neutralize the pH and 400 μL of the collagen solution was added to each well of the 24-well plates. For the wells where the antibodies were included in the collagen gel solution, CHO cells were prepared at 2.5×10^6 and the antibodies were prepared at 2× final concentration in ExpiCHO media. The cells and antibodies were then combined 1:1 before the addition of the stock collagen type 1. The gels were allowed to polymerize for 60 minutes at 37° C. Antibodies were added to the ExpiCHO media, which was then layered on top of the polymerized gel (400 μL/well). The gels were incubated for 6 days at 37° C. before gel contraction was quantified. Images of each well were analyzed using Image J and gel contraction was determined as a percentage of the initial gel area.
Selected exemplary antibodies were tested for the ability to inhibit cell-mediated 3D gel contraction because this ability is directly linked to the functionality of the exemplary antibodies.

[4] = tested on: human Precision-Cut Kidney Slices (PCKS); test: Precision-Cut Kidney Slices (PCKS); format: cell-based; conditions: 72- and 96-hour time points at each dose tested (1, 10 and 50 μg/mL)
Protocol: PCKS were prepared from explanted fibrotic human kidney tissue and rested for 24 hours to allow the post-slicing stress period to elapse before experiments began. PCKS were cultured with TGF-β1 (3 ng/mL) and PDGFββ (50 ng/mL) in the presence or absence of Alk5i (10 μM, positive control), test anti-α11β1 antibodies over three doses (1, 10 and 50 μg/mL) or in the presence of IgG control antibodies at a single high dose. PCKS culture media was harvested every 24 hours for a total of 3 time points. Levels of Collagen type I α1 (col1a1) in the tissue culture supernatants were quantified using R&D Duoset ELISA kits. Statistics were performed using Two-way ANOVA followed by Dunnett's multiple comparisons test.
As described in the methods above, PCKS were prepared from explanted fibrotic human kidney tissue and rested for 24 hours to allow the post-slicing stress period to elapse before experiments began. PCKS were cultured with TGF-β1 (3 ng/ml) and PDGFββ (50 ng/mL) in the presence or absence of Alk5i (10 μM, positive control), test anti-α11β1 antibodies over three doses (1, 10 and 50 μg/mL) or in the presence of IgG control antibodies at a single high dose. PCKS culture media was harvested every 24 hours for a total of 3 time points. Levels of Collagen type I α1 (col1a1) in the tissue culture supernatants were quantified using R&D Duoset ELISA kits. […]

[5] = molecular target: T1, α11β1 I Domain; test: SPR binding to α11β1 I Domain; conditions: in words
Protocol: (§1) The affinity of antibodies for human α11β1 was measured by surface plasmon resonance assay (SPR). Affinity was measured at pH 7.6 and 25° C. with a Biacore T200 instrument. Anti-HIS antibody was immobilized on the SPR sensor surface using EDC/NHS covalent attachment. HIS-tagged human α11β1 was captured on the sensor surface and a single-cycle kinetics assay was used. Increasing concentrations of test antibody were injected in series over the sensor-bound α11β1. Dissociation was monitored for 1000 seconds. A sensor surface with only anti-HIS antibody and a series of blank injections were used to double-reference subtract the data. A 1:1 Langmuir model was fit to the data to estimate the kinetic association and dissociation constants. The affinity (equilibrium dissociation constant) of the interaction was calculated by dividing the kinetic dissociation constant by the kinetic association constant. Between injection cycles α11β1 and bound antibody were removed with an injection of 10 mM glycine at pH 1.5.
(§2) The binding affinity of antibodies for the α11β1 Headpiece and α11β1 I Domain as measured by SPR is shown in FIG. 10A and FIG. 10B, respectively.

[6] = tested on: α11β1 Headpiece; test: SPR binding to α11β1 Headpiece; design: species or system human; conditions: in words
Protocol: as §1, §2

[7] = tested on: A549 cell xenografts; test: Tumor xenograft model; format: in vivo, C.B-17 SCID mice; conditions: A549 xenograft, SCID mice
Protocol: Fifty-six female C.B-17 SCID mice were inoculated with A549 cells (5×10^6 cells/mouse) subcutaneously in the flank. Once tumor volume reached ˜100 mm^3, animals were randomized amongst 7 groups of 8 mice each. Mice were then treated intraperitonealy every 3 days for a total of 7 doses with isotype controls or novel mAbs 79E3E3, 16E10 and 9G04 (2 and 20 mg/kg) or with docetaxel at 10 mg/kg every 4 days for a total of 6 doses. Tumor volumes and body weights were recorded twice a week with a gap of 2-3 days in between two measurements until any of the following conditions defined were observed: loss of 20% or more body weight; tumors that inhibit normal physiological function such as eating, drinking, and mobility; ulcerated tumors; tumor size greater than 2000 mm^3 and clinical observations of prostration, paralysis, seizures and hemorrhages.
In this example, studies were performed to determine if inhibition of α11β1 function with mAb results in xenograft growth inhibition. As shown in FIG. 16 and Table 4, blocking α11β1 on mouse CAFs impeded xenograft growth in SCID mice.

| Molecule | Cross-reactivity with other collagen receptors [1] | Binding to the I domain of α11β1 [2] | Inhibition of CHO-hu α11-mediated collagen gel contraction [3] | Inhibition of col1a1 secretion [4] | Binding to α11β1 I domain (SPR) [5] | Binding to α11β1 headpiece domain (SPR) [6] | Tumor growth inhibition compared to isotype control [7] |
| --- | --- | --- | --- | --- | --- | --- | --- |
| 40G10H11: rat anti-α11β1 mAb; VH SEQ ID NO: 157, VL SEQ ID NO: 158 (antibody, V domains shown) VH: MDIRLSLGFLVLFIKGDQCAVQLVESGGGLVQPGRSLKLSCAASRITFTDYYMAWVRQAPTKGLEWVATISSDGGDTFYRDSVKGRFTISRDNAKSTLYLQMVSLRSEDTATYYCSTDRGAQFGYWGQGTLVTVSS VL: MAPVQLLGLLLIWLPAMRCDIQMTQSPSFLSASVGDRVSINCKASQNVHENLNWYQQKLGEAPKRLIYNTNNLQTGIPSRFSGSGSGADYTLTISSLQPEDFATYFCLQHNAFPYTFGPGTKLELK | does cross-react with other collagen receptors | not found to be an I-domain binder |  |  |  |  |  |
| 1994_01_C07: fully human anti-α11β1 mAb from phage display; HCDR3 SEQ ID NO: 267, LCDR3 SEQ ID NO: 271 (antibody, V domains shown) VH: QVQLVQSGAEVKKPGASVKVSCKASGYTFTSYGISWVRQAPGQGLEWMGWISAYNGNTNYAQKLQGRVTMTTDTSTSTAYMELRSLRSDDTAAYYCARVTGITGTTIDPWGQGTMVTVSS VL: DIQMTQSPSSLSASVGDRVTITCRASQSISSYLNWYQQKPGKAPKLLIYDASSLESGVPSRFSGSGSGTEFTLTISSLQPDDFAVYYCQQYNNWPQTFGQGTKVEIK |  |  | inhibited | significant inhibition of col1a1 secretion | do not bind | do not bind |  |
| 79E3E3: rat anti-α11β1 mAb; VH SEQ ID NO: 145, VL SEQ ID NO: 146 (antibody, V domains shown) VH: MDWLWNLLFLMVVAQSAQAQIQLVQSGPEVKKPGESVKISCKASGYTFTDYAMNWVKQAPGNGLKWMGWINTQTGKPTYADDFKQRFVFSLETSARTTYLQINNLNIEDTATYFCTRLGTGNTKGFAYWGQGTLVTVSS VL: MESQTHVLISLLLCVSGTCGDILINQSPASLTVSAGERVTMSCKSSQSLLYSENNQDYLAWYQQKPGQFPKLLIYGASNRHTGVPDRFTGSGSGTDFTLTISSVQAEDLADYYCEQTYRYPFTFGSGTKLEIK |  | high and I-domain binder | inhibited |  | do bind |  | significantly inhibited tumor growth |
| 16E10: rabbit anti-α11β1 mAb; heavy chain SEQ ID NO: 161, light chain SEQ ID NO: 162 (antibody) heavy: METGLRWLLLVAVLKGVQCQSLEESGGDLVKPGASLTLTCRVSGFSFSSSYYMCWVRQAPGKGLEWIACIGTTRGSTYYATWAKGRFTISKISSTTVTLQMTSLTDADTATYFCARDATGYRINTIGLYFNLWGPGTLVTVSSGQPKAPSVFPLAPCCGDTPSSTVTLGCLVKGYLPEPVTVTWNSGTLTNGVRTFPSVRQSSGLYSLSSVVSVTSSSQPVTCNVAHPATNTKVDKTVAPSTCSKPMCPPPELPGGPSVFIFPPKPKDTLMISRTPEVTCVVVDVSQDDPEVQFTWYINNEQVRTARPPLREQQFNSTIRVVSTLPIAHQDWLRGKEFKCKVHNKALPAPIEKTISKARGQPLEPKVYTMGPPREELSSRSVSLTCMINGFYPSDISVEWEKNGKAEDNYKTTPTVLDSDGSYFLYSKLSVPTSEWQRGDVFTCSVMHEALHNHYTQKSISRSPGK light: MDTRAPTQLLGLLLLWLPGARCAFELTQTPSSVEAAVGGTPTIKCQASQTIYSYLSWYQQKPGQPPKLLIYEASKLASGVPSRFSGSGSGTDYTLTISDLECADAATYYCQSYHGTASTEYNTFGGGTEVVVRGDPVAPTVLIFPPAADQVATGTVTIVCVANKYFPDVTVTWEVDGTTQTTGIENSKTPQNSADCTYNLSSTLTLTSTQYNSHKEYTCKVTQGTTSVVQSFNRGDC |  |  | inhibited |  | do not bind | do not bind | no significant inhibition of tumor growth |
